Laboratory results: US20260234270A1, “METHODS FOR TREATING CONDITIONS USING ANTI-NMDA RECEPTOR ANTIBODIES” (Lankenau Institute for Medical Research, priority 2022, published 2026)
Entries after “also recorded” stand apart in the source; their conditions may differ.

Legend:
[1] = test system: tinnitus; details: intratympanic injection; cited from earlier work
[2] = test system: retinal cells; details: glaucoma, elevated homocysteine; cited from earlier work
[3] = test system: monkey model of experimental glaucoma; details: cited from earlier work
[4] = test system: streptozotocin-induced diabetic mouse model; details: cited from earlier work
[5] = test system: amino terminal domain of GluN1; assay: Competitive binding assay, Whole Cell ELISA with HEK293T-ATD cells; details: for Binding of one biotinylated mAb in the presence of increasing concentrations of the other mAb (2G6 versus 5F5): HEK293T-ATD cells, competitor 50 to 0.2 μg/mL, biotinylated mAb 5 μg/mL; for Competition of 1D1 with mixed 2G6 and 5F5 mAbs for binding to NMDAR ATD: experiments similar to Example 2
Source text: We assessed the binding epitopes of the 2G6 and 5F5 mAbs. We tested whether they bind overlapping epitopes on GluN1, using a competitive binding assay with HEK293T-ATD cells, which express the amino terminal domain of GluN1. Sharma, R., Al-Saleem, F. H., Panzer, J., Lee, J., Puligedda, R. D., Felicori, L. F., Kattala, C. D., Rattelle, A. J., Ippolito, G., Cox, R. H., Lynch, D. R. and Dessain, S. K. (2018), Monoclonal antibodies from a patient with anti-NMDA receptor encephalitis. Ann Clin Transl Neurol, 5:935-951, which is incorporated herein by reference.
HEK293T-ATD cells (10^5 cells/well) were tested in a Whole Cell ELISA with luminescent detection method. We biotinylated the 5F5 and 2G6 or 5F5 using the EZ-Link™ Hydrazide-Biotin kit (Thermo Fisher), then generated dilution series of 2G6 or 5F5 (50 μg/mL to 0.2 μg/mL) and added to them the plate for 1 h at 37° C., followed by three washes with PBST. We then added the biotinylated 5F5 or 2G6 mAbs at 5 μg/mL, or PBS, and incubated for 1 h at 37° C. followed by three washes with PBST. The Pierce Streptavidin Poly-HRP substrate (Thermo Fisher) was added at 1:2000 dilution and incubated for 1 h at 37° C. This was followed by SuperSignal ELISA Femto Substrate, (1:1 ratio) (Thermo Fisher) and relative luminescence values were measured using the Synergy II plate reader. Duplicate binding curves were plotted and the linear portions were used for analysis using Excel.
We measured binding of one mAb, biotinylated, in the presence of increasing concentrations of the other.
Experiments similar to those done in Example 2 were used to test whether the 1D1 binds a site on the NMDAR ATD that overlaps 2G6 and 5F5. In these experiments, 1D1 binding was tested in competition with mixed 2G6 and 5F5 mAbs.

[6] = molecular target: NMDAR GluN1 antigen (Mus musculus, UniProt P35438); assay: Immunofluorescence staining of mouse retinas (normoxic; oxygen induced retinopathy model); type: binding; details: chimeric antibodies
[7] = molecular target: T1, NMDAR GluN1 epitopes (Mus musculus, UniProt P35438); assay: Antibody binding in mouse retina, model of retinitis pigmentosa
T1 construct: from tissue; host or cells: mouse retina, model of retinitis pigmentosa
Source text: Left panels show DAPI staining, middle panels show antibody staining, right antibodies show merged imaging.

[8] = test system: oxygen induced retinopathy (OIR) in mice; assay: Mouse oxygen induced retinopathy (OIR) model, hyperoxia induced hemorrhage; type: in vivo; details: hyperoxia P7 to P12; eye injected at P12; other eye PBS
Method: Neonatal mice were exposed to hyperoxia (75% oxygen) from postnatal day 7 (P7) to P12, and then returned to room air. Upon return to room temperature, at P12, the eye on the right was injected with 5F5 antibody against NMDAR, while the left eye in the figure was injected with PBS.
We next examined the potential effects of the NMDAR antibodies on pathological retinal neovascularization. We used the well characterized model of oxygen induced retinopathy (OIR) in mice. In this model, neonatal mice are exposed to hyperoxia (75% oxygen) from postnatal day 7 (P7) to P12, and then returned to room air. This approach, induces pathological neovascularization in the retina. In FIGS. 3A and 3B, a comparison is shown between two eyes of a mouse exposed to hyperoxia. Upon return to room temperature, at P12, the eye in FIG. 3B was injected with 5F5 antibody against NMDAR, while the eye in FIG. 3A was injected with PBS. […] This is a wholly unexpected finding.

[9] = hyperoxic conditions (75% oxygen P7 to P12, oxygen induced retinopathy model)

Molecule | Binding of one biotinylated mAb in the presence of increasing concentrations of the other mAb (2G6 versus 5F5) [5] | Competition of 1D1 with mixed 2G6 and 5F5 mAbs for binding to NMDAR ATD [5] | Antibody binding in mouse retina [6, 9] | Antibody binding in mouse retina ([6]; normoxic conditions) | Antibody binding in mouse retina (epitope expression) [7] | further results
CN[C@]1(c2ccccc2Cl)CCCCC1=O [Esketamine] | – | – | – | – | – | Activity in treatment of tinnitus [1]: has shown activity in treatment of tinnitus
C[C@]12N[C@H](Cc3ccccc31)c1ccccc12 [MK-801] | – | – | – | – | – | Homocysteine toxicity to retinal cells via NMDAR [2]: inhibited
CC12CC3CC(C)(C1)CC(N)(C3)C2 [Memantine] | – | – | – | – | – | Retinal damage [3]: reduced retinal damage; Retinal toxicity [4]: reduce retinal toxicity
2G6: monoclonal human anti-NMDAR (GluN1) antibody; variable heavy chain SEQ ID NO: 9, light chain SEQ ID NO: 11 (antibody, listed as Mus musculus, listed as Homo sapiens, V domains shown) VH: QVQLQESGGGVVQPGRSLRLSCAASGFSFNAFAMHWVRQAPGKGLEWVARISHYGSDDYYADSVKGRFTISRDNSQNTLFLQMNSLKAEDTGVYYCWRGFTLVRGVISRNPINRFSGMDVWGQGTTVTVS VL: SYELMQPPSVSVSPGQTARITCSGDALPKKYAYWYQQKSGQAPILVIYEDNKRPSGIPERFSGSSSGTMATLTISGAQVEDEADYFCYSTDSSGNHGVFGGGTKLTVL | Bind Different Sites on the NMDAR | not inhibited by 1D1 | expressed in the mouse retina; also recorded: immunoreactive with the outer segment of the photoreceptors as well as the choriocapillaris layers of the mouse retina; also recorded: show binding in outer segments of mouse retina | None of the anti-NMDAR antibodies or the control antibody bound to mouse retina | expressed in the mouse retina | –
1D1: monoclonal human anti-NMDAR (GluN1) antibody; variable heavy chain SEQ ID NO: 5, light chain SEQ ID NO: 7 (antibody, listed as Mus musculus, listed as Homo sapiens, V domains shown) VH: LVQLVESGGGVVQSGRSLRLSCAASGFAFHTFTIHWVRQAPGKGLDWVTAIYFDGTKKYYADSVKGRFTVSRDNSKNTVYLQMNGLRGEDTAVYYCARARYSYGLSFDYWGQGTPVTVSS VL: QSVVTQPPSVSAAPGQKVTISCSASSSYLGSNYVSWYQQLPGTAPKLLIYDNNKRSSGISDRFSGSKSGTSATLDITGLQTGDEADYYCGAWDSSLSVVVFGGGTKLTVL | – | not inhibited by 2G6 and 5F5 binding | expressed in the mouse retina; also recorded: immunoreactive with the outer segment of the photoreceptors as well as the choriocapillaris layers of the mouse retina; also recorded: show binding in outer segments of mouse retina | None of the anti-NMDAR antibodies or the control antibody bound to mouse retina | – | –
5F5: monoclonal human anti-NMDAR (GluN1) antibody; variable heavy chain SEQ ID NO: 1, light chain SEQ ID NO: 3; chimeric form in Examples 5-8 (antibody, listed as Mus musculus, listed as Homo sapiens, V domains shown) VH: QVQLVESGGGVVRPGGSLRLSCAASGFTFSTYSLHWVRQAPGKGLEWVGVILYDGSKKYYADSVRGRFTISRDNSKSTLNLDMSSLRPDDTAVYYCARDPIAVAPRPSGMVPQGFDYWGQGTLVTVSS VL: QSVVTQPPSASGTPGQRVTISCSGSSSNIGRNFVFWYRQLPGTAPKVLIYKNIQRPSGVPDRISGSRSGSSASLAISGLRSEDEADYYCASWDDSLSGVVFGGGTKLTVL | Bind Different Sites on the NMDAR | not inhibited by 1D1 | shows staining; also recorded: show binding in outer segments of mouse retina | None of the anti-NMDAR antibodies or the control antibody bound to mouse retina | expressed in the mouse retina | Antibody binding in mouse retina ([6]; hyperoxic conditions (75% oxygen P7 to P12, oxygen induced retinopathy model), listed as 5G5): immunoreactive with the outer segment of the photoreceptors as well as the choriocapillaris layers of the mouse retina; Retinal bleeding / pathological neovascularization of the treated eye [8]: Prevents Hyperoxia Induced Hemorrhage; also recorded: the treated eye shows no bleeding
